The record followed here is patent US20180155451A1 (published 2018).

T1: FcγRIIa R (human, UniProt P12318 34-217)
T1 construct: extracellular domain; also called FcgRIIa R type; 2aR
T1 sequence (looked up): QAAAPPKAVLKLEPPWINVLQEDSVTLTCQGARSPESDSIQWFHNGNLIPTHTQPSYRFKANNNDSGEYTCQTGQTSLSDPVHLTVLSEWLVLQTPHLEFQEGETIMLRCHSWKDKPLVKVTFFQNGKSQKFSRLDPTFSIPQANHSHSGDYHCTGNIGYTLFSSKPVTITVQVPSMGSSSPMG

B1: GpH7-B3 variant N325_06M/GpL16-k0 (antibody, human IgG1, kappa)
heavy: not shown
light: DIVMTQSPLSLPVTPGEPASISCQASESLVHSNRNTYLHWYLQKPGQSPQLLIYKVSNRFSGVPDRFSGSGSGTDFTLKISRVEAEDVGVYYCSQNTHVPPTFGQGTKVEIERTVAAPSVFIFPPSDEQLKSGTASVVCLLNNFYPREAKVQWKVDNALQSGNSQESVTEQDSKDSTYSLSSTLTLSKADYEKHKVYACEVTHQGLSSPVTKSFNRGEC
notes: also called Ho Ab N325_06M
B2: GpH7-B3 variant I336_06M/GpL16-k0 (antibody, human IgG1, kappa)
heavy: not shown
light: B1 light
notes: also called Ho Ab I336_06M
B3: GpH7-B3 variant K334_05P/GpL16-k0 (antibody, human IgG1, kappa)
heavy: not shown
light: B1 light
notes: also called Ho Ab K334_05P
B4: GpH7-B3 variant H268_11K/GpL16-k0 (antibody, human IgG1, kappa)
heavy: not shown
light: B1 light
notes: also called Ho Ab H268_11K
B5: GpH7-B3 variant G237_10E/GpL16-k0 (antibody, human IgG1, kappa)
heavy: not shown
light: B1 light
notes: also called Ho Ab G237_10E
B6: GpH7-B3 variant A330_11K/GpL16-k0 (antibody, human IgG1, kappa)
heavy: not shown
light: B1 light
notes: also called Ho Ab A330_11K
B7: GpH7-B3 variant G237_08L/GpL16-k0 (antibody, human IgG1, kappa)
heavy: not shown
light: B1 light
notes: also called Ho Ab G237_08L
B8: GpH7-B3 variant H268_20W/GpL16-k0 (antibody, human IgG1, kappa)
heavy: not shown
light: B1 light
notes: also called Ho Ab H268_20W
B9: GpH7-B3 variant A330_15Y/GpL16-k0 (antibody, human IgG1, kappa)
heavy: not shown
light: B1 light
notes: also called Ho Ab A330_15Y
B10: GpH7-B3 variant A327_09D/GpL16-k0 (antibody, human IgG1, kappa)
heavy: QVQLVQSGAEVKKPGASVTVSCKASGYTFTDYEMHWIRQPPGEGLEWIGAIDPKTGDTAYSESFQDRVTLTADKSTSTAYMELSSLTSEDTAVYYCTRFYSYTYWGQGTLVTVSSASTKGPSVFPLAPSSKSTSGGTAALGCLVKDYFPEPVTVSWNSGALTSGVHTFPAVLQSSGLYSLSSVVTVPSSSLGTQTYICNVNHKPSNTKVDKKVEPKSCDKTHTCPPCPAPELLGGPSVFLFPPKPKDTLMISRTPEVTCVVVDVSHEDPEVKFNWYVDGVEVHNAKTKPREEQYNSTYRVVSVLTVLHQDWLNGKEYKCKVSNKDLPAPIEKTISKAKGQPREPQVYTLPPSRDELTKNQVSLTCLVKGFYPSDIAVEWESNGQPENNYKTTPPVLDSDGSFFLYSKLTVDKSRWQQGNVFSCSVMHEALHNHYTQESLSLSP
light: B1 light
notes: also called Ho Ab A327_09D
B11: GpH7-B3 variant K326_12R/GpL16-k0 (antibody, human IgG1, kappa)
heavy: not shown
light: B1 light
notes: also called Ho Ab K326_12R
B12: GpH7-B3 variant K334_08L/GpL16-k0 (antibody, human IgG1, kappa)
heavy: not shown
light: B1 light
notes: also called Ho Ab K334_08L
B13: GpH7-B3 variant G237_06M/GpL16-k0 (antibody, human IgG1, kappa)
heavy: not shown
light: B1 light
notes: also called Ho Ab G237_06M
B14: GpH7-B3 variant H268_15Y/GpL16-k0 (antibody, human IgG1, kappa)
heavy: not shown
light: B1 light
notes: also called Ho Ab H268_15Y
B15: GpH7-B3 variant H268_12R/GpL16-k0 (antibody, human IgG1, kappa)
heavy: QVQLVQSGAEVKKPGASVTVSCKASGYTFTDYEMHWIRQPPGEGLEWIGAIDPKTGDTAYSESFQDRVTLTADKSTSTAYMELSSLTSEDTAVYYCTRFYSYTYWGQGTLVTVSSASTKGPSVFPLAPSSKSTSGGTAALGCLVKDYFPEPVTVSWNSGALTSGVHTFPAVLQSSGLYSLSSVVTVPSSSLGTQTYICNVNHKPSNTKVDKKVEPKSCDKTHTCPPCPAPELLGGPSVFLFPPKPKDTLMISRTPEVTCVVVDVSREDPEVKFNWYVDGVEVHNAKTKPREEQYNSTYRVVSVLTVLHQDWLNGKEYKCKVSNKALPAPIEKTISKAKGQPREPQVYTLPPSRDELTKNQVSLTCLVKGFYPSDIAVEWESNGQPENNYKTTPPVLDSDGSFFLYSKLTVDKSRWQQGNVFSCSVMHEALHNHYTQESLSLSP
light: B1 light
notes: also called Ho Ab H268_12R
B16: GpH7-B3 variant K326_20W/GpL16-k0 (antibody, human IgG1, kappa)
heavy: not shown
light: B1 light
notes: also called Ho Ab K326_20W
B17: GpH7-B3 variant K326_15Y/GpL16-k0 (antibody, human IgG1, kappa)
heavy: not shown
light: B1 light
notes: also called Ho Ab K326_15Y
B18: GpH7-B3 variant I332_06M/GpL16-k0 (antibody, human IgG1, kappa)
heavy: not shown
light: B1 light
notes: also called Ho Ab I332_06M
B19: GpH7-B3 variant H268_03V/GpL16-k0 (antibody, human IgG1, kappa)
heavy: not shown
light: B1 light
notes: also called Ho Ab H268_03V
B20: GpH7-B3 variant E333_05P/GpL16-k0 (antibody, human IgG1, kappa)
heavy: not shown
light: B1 light
notes: also called Ho Ab E333_05P
B21: GpH7-B3 variant G236_14T/GpL16-k0 (antibody, human IgG1, kappa)
heavy: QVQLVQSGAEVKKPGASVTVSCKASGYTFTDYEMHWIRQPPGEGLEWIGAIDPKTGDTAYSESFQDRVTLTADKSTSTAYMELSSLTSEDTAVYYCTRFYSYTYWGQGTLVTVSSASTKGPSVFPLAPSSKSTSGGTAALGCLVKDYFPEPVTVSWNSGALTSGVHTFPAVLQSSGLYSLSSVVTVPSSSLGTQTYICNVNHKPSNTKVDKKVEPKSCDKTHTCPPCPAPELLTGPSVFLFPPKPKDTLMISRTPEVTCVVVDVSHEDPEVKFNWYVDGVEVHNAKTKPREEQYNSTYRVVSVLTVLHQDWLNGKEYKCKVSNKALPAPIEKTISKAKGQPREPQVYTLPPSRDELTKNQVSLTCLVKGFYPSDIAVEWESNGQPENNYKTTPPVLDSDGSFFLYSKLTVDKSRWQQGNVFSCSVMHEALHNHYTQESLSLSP
light: B1 light
notes: also called Ho Ab G236_14T
B22: GpH7-B3 variant I332_14T/GpL16-k0 (antibody, human IgG1, kappa)
heavy: not shown
light: B1 light
notes: also called Ho Ab I332_14T
B23: GpH7-B3 variant E333_09D/GpL16-k0 (antibody, human IgG1, kappa)
heavy: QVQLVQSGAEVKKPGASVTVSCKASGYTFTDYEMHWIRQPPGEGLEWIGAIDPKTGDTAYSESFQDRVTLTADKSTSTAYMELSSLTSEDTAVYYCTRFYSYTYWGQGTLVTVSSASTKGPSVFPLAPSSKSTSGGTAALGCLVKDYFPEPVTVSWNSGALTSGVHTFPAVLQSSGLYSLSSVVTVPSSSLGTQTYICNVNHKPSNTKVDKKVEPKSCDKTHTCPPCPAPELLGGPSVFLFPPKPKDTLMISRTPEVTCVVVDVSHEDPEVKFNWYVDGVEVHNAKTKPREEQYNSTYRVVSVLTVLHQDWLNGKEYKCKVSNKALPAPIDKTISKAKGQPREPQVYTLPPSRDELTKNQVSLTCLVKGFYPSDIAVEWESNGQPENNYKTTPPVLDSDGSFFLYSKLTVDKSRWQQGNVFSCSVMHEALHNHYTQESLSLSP
light: B1 light
notes: also called Ho Ab E333_09D
B24: GpH7-B3 variant I336_08L/GpL16-k0 (antibody, human IgG1, kappa)
heavy: not shown
light: B1 light
notes: also called Ho Ab I336_08L
B25: GpH7-B3 variant A330_01G/GpL16-k0 (antibody, human IgG1, kappa)
heavy: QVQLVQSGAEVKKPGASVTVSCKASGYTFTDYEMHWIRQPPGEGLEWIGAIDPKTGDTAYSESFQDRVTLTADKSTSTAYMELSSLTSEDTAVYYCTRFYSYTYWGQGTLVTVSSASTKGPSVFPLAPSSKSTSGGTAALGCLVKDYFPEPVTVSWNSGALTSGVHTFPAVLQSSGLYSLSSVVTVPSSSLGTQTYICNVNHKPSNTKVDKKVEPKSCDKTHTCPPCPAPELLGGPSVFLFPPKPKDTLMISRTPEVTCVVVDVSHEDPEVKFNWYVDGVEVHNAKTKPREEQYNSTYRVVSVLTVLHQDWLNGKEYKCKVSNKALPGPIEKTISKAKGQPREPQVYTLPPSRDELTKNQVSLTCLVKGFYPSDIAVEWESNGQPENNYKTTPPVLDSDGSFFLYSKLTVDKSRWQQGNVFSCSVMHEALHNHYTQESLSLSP
light: B1 light
notes: also called Ho Ab A330_01G
B26: GpH7-B3 variant K326_18N/GpL16-k0 (antibody, human IgG1, kappa)
heavy: not shown
light: B1 light
notes: also called Ho Ab K326_18N
B27: GpH7-B3 variant K334_04F/GpL16-k0 (antibody, human IgG1, kappa)
heavy: not shown
light: B1 light
notes: also called Ho Ab K334_04F
B28: GpH7-B3 variant A327_10E/GpL16-k0 (antibody, human IgG1, kappa)
heavy: not shown
light: B1 light
notes: also called Ho Ab A327_10E
B29: GpH7-B3 variant G237_04F/GpL16-k0 (antibody, human IgG1, kappa)
heavy: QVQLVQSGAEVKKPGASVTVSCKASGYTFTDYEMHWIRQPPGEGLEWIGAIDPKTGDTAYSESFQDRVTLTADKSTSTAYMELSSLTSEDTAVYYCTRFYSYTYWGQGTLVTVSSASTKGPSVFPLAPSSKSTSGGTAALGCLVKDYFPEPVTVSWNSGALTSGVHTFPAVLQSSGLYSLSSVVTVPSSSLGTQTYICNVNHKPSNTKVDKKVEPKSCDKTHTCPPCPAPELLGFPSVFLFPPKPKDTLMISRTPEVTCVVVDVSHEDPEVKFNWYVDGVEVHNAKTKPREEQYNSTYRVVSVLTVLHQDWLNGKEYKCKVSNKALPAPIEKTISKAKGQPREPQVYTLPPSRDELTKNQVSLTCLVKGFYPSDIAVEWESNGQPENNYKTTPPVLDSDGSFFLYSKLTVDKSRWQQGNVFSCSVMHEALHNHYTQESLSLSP
light: B1 light
notes: also called Ho Ab G237_04F
B30: GpH7-B3 variant E269_09D/GpL16-k0 (antibody, human IgG1, kappa)
heavy: not shown
light: B1 light
notes: also called Ho Ab E269_09D
B31: GpH7-B3 variant K326_03V/GpL16-k0 (antibody, human IgG1, kappa)
heavy: not shown
light: B1 light
notes: also called Ho Ab K326_03V
B32: GpH7-B3 variant K326_07I/GpL16-k0 (antibody, human IgG1, kappa)
heavy: not shown
light: B1 light
notes: also called Ho Ab K326_07I
B33: GpH7-B3 variant H268_01G/GpL16-k0 (antibody, human IgG1, kappa)
heavy: not shown
light: B1 light
notes: also called Ho Ab H268_01G
B34: GpH7-B3 variant A330_05P/GpL16-k0 (antibody, human IgG1, kappa)
heavy: not shown
light: B1 light
notes: also called Ho Ab A330_05P
B35: GpH7-B3 variant E333_04F/GpL16-k0 (antibody, human IgG1, kappa)
heavy: not shown
light: B1 light
notes: also called Ho Ab E333_04F
B36: GpH7-B3 variant G237_19Q/GpL16-k0 (antibody, human IgG1, kappa)
heavy: not shown
light: B1 light
notes: also called Ho Ab G237_19Q
B37: GpH7-B3 variant H268_05P/GpL16-k0 (antibody, human IgG1, kappa)
heavy: not shown
light: B1 light
notes: also called Ho Ab H268_05P
B38: GpH7-B3 variant K326_08L/GpL16-k0 (antibody, human IgG1, kappa)
heavy: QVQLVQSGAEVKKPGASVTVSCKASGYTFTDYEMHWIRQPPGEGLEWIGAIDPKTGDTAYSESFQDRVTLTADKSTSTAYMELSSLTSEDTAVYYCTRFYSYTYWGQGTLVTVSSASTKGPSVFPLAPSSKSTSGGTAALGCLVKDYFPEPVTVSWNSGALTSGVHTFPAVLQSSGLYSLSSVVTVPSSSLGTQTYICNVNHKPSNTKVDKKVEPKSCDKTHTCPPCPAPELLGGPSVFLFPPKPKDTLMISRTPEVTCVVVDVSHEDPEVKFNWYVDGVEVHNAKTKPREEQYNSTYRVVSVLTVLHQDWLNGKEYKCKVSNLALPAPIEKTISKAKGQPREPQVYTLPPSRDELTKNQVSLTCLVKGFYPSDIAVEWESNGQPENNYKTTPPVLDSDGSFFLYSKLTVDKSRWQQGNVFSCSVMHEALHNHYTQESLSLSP
light: B1 light
notes: also called Ho Ab K326_08L
B39: GpH7-B3 variant G237_13S/GpL16-k0 (antibody, human IgG1, kappa)
heavy: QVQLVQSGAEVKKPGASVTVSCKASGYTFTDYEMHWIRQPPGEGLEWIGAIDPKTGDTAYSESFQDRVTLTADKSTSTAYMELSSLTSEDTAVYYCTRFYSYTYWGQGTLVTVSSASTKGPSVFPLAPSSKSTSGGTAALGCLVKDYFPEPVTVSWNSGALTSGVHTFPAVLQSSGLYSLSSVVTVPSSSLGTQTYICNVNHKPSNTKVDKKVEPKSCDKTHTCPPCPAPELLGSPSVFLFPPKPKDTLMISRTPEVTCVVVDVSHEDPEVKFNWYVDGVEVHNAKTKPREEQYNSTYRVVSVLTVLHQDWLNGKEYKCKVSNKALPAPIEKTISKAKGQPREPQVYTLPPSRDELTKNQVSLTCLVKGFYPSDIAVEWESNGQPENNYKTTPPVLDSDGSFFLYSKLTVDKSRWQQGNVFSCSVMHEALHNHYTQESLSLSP
light: B1 light
notes: also called Ho Ab G237_13S
B40: GpH7-B3 variant G237_18N/GpL16-k0 (antibody, human IgG1, kappa)
heavy: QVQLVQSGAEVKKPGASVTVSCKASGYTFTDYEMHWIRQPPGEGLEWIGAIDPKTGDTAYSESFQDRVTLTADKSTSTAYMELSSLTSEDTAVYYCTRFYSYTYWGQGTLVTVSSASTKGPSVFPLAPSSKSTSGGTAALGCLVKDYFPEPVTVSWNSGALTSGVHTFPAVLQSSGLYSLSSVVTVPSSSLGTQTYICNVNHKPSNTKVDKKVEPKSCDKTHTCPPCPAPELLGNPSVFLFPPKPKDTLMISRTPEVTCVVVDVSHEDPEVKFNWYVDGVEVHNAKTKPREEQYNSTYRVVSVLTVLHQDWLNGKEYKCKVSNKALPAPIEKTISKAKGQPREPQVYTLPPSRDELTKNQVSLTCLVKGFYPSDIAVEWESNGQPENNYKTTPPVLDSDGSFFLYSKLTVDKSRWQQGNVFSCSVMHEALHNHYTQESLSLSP
light: B1 light
notes: also called Ho Ab G237_18N
B41: GpH7-B3 variant G237_02A/GpL16-k0 (antibody, human IgG1, kappa)
heavy: not shown
light: B1 light
notes: also called Ho Ab G237_02A
B42: GpH7-B3 variant A330_12R/GpL16-k0 (antibody, human IgG1, kappa)
heavy: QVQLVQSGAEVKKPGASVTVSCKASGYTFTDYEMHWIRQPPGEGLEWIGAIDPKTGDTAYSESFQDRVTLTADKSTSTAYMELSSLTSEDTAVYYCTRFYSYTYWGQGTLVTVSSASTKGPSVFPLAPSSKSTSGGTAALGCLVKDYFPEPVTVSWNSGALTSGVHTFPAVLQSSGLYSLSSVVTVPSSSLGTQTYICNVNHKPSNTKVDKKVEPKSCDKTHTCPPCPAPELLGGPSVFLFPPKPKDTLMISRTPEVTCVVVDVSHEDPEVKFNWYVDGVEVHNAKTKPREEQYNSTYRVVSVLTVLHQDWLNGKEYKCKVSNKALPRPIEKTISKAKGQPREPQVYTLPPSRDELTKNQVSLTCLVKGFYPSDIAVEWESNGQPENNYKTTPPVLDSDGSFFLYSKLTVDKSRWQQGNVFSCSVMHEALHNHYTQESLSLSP
light: B1 light
notes: also called Ho Ab A330_12R
B43: GpH7-B3 variant K334_02A/GpL16-k0 (antibody, human IgG1, kappa)
heavy: not shown
light: B1 light
notes: also called Ho Ab K334_02A
B44: GpH7-B3 variant G237_20W/GpL16-k0 (antibody, human IgG1, kappa)
heavy: not shown
light: B1 light
notes: also called Ho Ab G237_20W
B45: GpH7-B3 variant A330_19Q/GpL16-k0 (antibody, human IgG1, kappa)
heavy: not shown
light: B1 light
notes: also called Ho Ab A330_19Q
B46: GpH7-B3 variant E333_08L/GpL16-k0 (antibody, human IgG1, kappa)
heavy: not shown
light: B1 light
notes: also called Ho Ab E333_08L
B47: GpH7-B3 variant E333_07I/GpL16-k0 (antibody, human IgG1, kappa)
heavy: not shown
light: B1 light
notes: also called Ho Ab E333_07I
B48: GpH7-B3 variant I336_18N/GpL16-k0 (antibody, human IgG1, kappa)
heavy: not shown
light: B1 light
notes: also called Ho Ab I336_18N
B49: GpH7-B3 variant K326_04F/GpL16-k0 (antibody, human IgG1, kappa)
heavy: not shown
light: B1 light
notes: also called Ho Ab K326_04F
B50: GpH7-B3 variant E333_15Y/GpL16-k0 (antibody, human IgG1, kappa)
heavy: not shown
light: B1 light
notes: also called Ho Ab E333_15Y
B51: GpH7-B3 variant G237_09D/GpL16-k0 (antibody, human IgG1, kappa)
heavy: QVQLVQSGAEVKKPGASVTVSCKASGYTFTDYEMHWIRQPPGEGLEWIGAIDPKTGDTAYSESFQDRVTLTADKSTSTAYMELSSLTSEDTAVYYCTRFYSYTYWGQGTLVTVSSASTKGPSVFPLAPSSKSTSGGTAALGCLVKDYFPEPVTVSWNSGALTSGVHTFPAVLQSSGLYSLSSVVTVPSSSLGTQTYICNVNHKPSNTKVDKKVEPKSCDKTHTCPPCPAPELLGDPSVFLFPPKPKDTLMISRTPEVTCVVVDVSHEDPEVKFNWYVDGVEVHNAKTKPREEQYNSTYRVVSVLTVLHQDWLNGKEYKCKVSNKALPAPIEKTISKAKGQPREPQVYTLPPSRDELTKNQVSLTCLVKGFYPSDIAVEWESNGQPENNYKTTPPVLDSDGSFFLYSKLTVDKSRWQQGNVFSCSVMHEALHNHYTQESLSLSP
light: B1 light
notes: also called Ho Ab G237_09D

This experiment addresses T1, FcγRIIa R. Kind of experiment: SPR Biacore; vs GpH7-B3/GpL16-k0 =100. As for the experimental part:
Analysis of interaction between objective antibody and the FcγR was carried out using Biacore T100 (GE Healthcare). HBS-EP+ (GE Healthcare) was used as the running buffer, and the measurement temperature was set to 25° C. Chips produced by immobilizing the antigen peptide by the amine coupling method to a Series S Sencor Chip CM5 (GE Healthcare), or alternatively, chips produced by allowing preliminarily biotinylated antigen peptides to interact with and immobilize onto a Series S Sensor Chip SA (certified) (GE Healthcare) were used. Antibodies of interest were captured onto an antigen peptide-immobilized chip, and allowed to interact to each FcγR diluted with running buffer. To regenerate and repeatedly use the chip, the antibodies captured on the chip were washed off by reacting 10 mM glycine-HCl, pH 1.5.
The FcγR-binding activity of each antibody was assessed primarily using as an indicator the FcγR-binding activity and dissociation constant for FcγR.
For orientation: In SPR one partner is held on a chip, and binding of the other changes the refractive index at the surface.
On to B1, for which the Ho/Con_2aR is 124 % of control. As for B2, the figure is 96.4 % of control.

B3: the Ho/Con_2aR was 102 % of control.

With B4, the Ho/Con_2aR was 93.4 % of control. In the case of B5 it was 22.5 % of control. As for B6, the figure is 106 % of control. As for B7, the figure is 56.6 % of control; as for B8, 110 % of control; as for B9, 87.5 % of control. Regarding B10, the Ho/Con_2aR was 120 % of control. In the case of B11, the Ho/Con_2aR was 95.7 % of control. In the case of B12 it was 105 % of control; in that of B13, 55.3 % of control. As for B14, the figure is 106 % of control; as for B15, 98.5 % of control. In the case of B16, the Ho/Con_2aR is 120 % of control. In the case of B17 it was 134 % of control. In the case of B18 it was 105 % of control; in that of B19, 105 % of control. In the case of B20 it was 99.9 % of control; in that of B21, 80 % of control; in that of B22, 99.6 % of control. As for B23, the Ho/Con_2aR is 96.5 % of control. For B24, the Ho/Con_2aR is 105 % of control. In the case of B25 it was 106 % of control; in that of B26, 113 % of control. As for B27, the Ho/Con_2aR was 110 % of control. As for B28, the figure is 104 % of control; as for B29, 113 % of control. In the case of B30 it was 103 % of control.

Turning to B31, the Ho/Con_2aR is 139 % of control. As for B32, the figure is 133 % of control; as for B33, 122 % of control. In the case of B34 it was 36.2 % of control; in that of B35, 92.4 % of control; in that of B36, 14.3 % of control. As for B37, the figure is 95.9 % of control; as for B38, 131 % of control.

In the case of B39, the Ho/Con_2aR is 44.4 % of control. In the case of B40 it was 73.6 % of control; in that of B41, 84 % of control; in that of B42, 101 % of control. In the case of B43 it was 100 % of control; in that of B44, 107 % of control. In the case of B45 it was 99.1 % of control; in that of B46, 97.1 % of control; in that of B47, 98.3 % of control.

In the case of B48, the Ho/Con_2aR is 94.5 % of control. In the case of B49 it was 133 % of control; in that of B50, 96.2 % of control. For B51, the Ho/Con_2aR was 73.1 % of control.
